The values below come from US20200024330A1.

Assay in all cases: cell-based or functional assay
Experiment [1] deals with HIV-1 Env of isolate MGRM-AG-012 (HIV-1).
Experiment [2] concerns the target HIV-1 Env of isolate MGRM-AG-011 (HIV-1).
Experiment [3] deals with HIV-1 Env of isolate MGRM-AG-008 (HIV-1).
Experiment [4] addresses HIV-1 Env of isolate MGRM-AG-005 (HIV-1).
The target of experiment [5] is HIV-1 Env of isolate MGRM-AG-013 (HIV-1).
Experiment [6] deals with HIV-1 Env of isolate MGRM-AE-007 (HIV-1).
In experiment [7] the target is aMLV envelope (negative control pseudovirus).
For experiment [8], the target named is HIV-1 Env of isolate MGRM-AE-008 (HIV-1).
Experiment [9] addresses HIV-1 Env of isolate MGRM-AG-002 (HIV-1).
The target of experiment [10] is HIV-1 Env of isolate MGRM-AG-003 (HIV-1).
Experiment [11] has as its target HIV-1 Env of isolate MGRM-AG-006 (HIV-1).
Experiment [12] deals with HIV-1 Env of isolate MGRM-AG-001 (HIV-1).
In experiment [13] the target is HIV-1 Env of isolate MGRM-AG-009 (HIV-1).
In experiment [14] the target is HIV-1 Env of isolate MGRM-Chronic-B-024 (HIV-1).
For experiment [15], the target named is HIV-1 Env of isolate MGRM-Chronic-B-012 (HIV-1).
Experiment [16] deals with HIV-1 Env of isolate MGRM-Chronic-B-010 (HIV-1).
In experiment [17] the target is HIV-1 Env of isolate MGRM-Chronic-B-018 (HIV-1).
The target in experiment [18] is HIV-1 Env of isolate MGRM-Chronic-B-017 (HIV-1).
The target of experiment [19] is HIV-1 Env of isolate MGRM-Chronic-B-023 (HIV-1).
Experiment [20] has as its target HIV-1 Env of isolate MGRM-Chronic-B-011 (HIV-1).
For experiment [21], the target named is HIV-1 Env of isolate MGRM-Chronic-B-020 (HIV-1).
Experiment [22] deals with HIV-1 Env of isolate JRFL (HIV-1).

By IC50 is commonly meant the midpoint of a concentration-inhibition curve. Low values mean greater potency in that assay, high ones weaker potency in that assay. For the substance PGT-141 (4964_G22; 4993_K13) (antibody), the IC50 in [1] is > 50 µg/mL; in [2] it was 0.118 µg/mL; in experiment [3], 19.2 µg/mL; in experiment [4], 0.497 µg/mL; in experiment [5] it was > 50 µg/mL; in experiment [6], 33.1 µg/mL. In addition, the IC50 in experiment [8] was 0.101 µg/mL; in [9], 0.049 µg/mL; in experiment [10] it was > 50 µg/mL; in experiment [11] it was > 50 µg/mL; in experiment [12], 18 µg/mL; in experiment [13] it was > 50 µg/mL. For the same substance, the neutralization IC50 in experiment [7] was > 50 µg/mL.

For the substance PGT-142 (4995_E20) (antibody), the IC50 is > 50 µg/mL in experiment [1]; 0.081 µg/mL in experiment [2]; 12.1 µg/mL in experiment [3]; 0.383 µg/mL in experiment [4]; 21.7 µg/mL in experiment [5]; 6.7 µg/mL in experiment [6]. The IC50 in experiment [8] is 0.08 µg/mL; in experiment [9] it was 0.044 µg/mL; in [10] it was > 50 µg/mL; in experiment [11] it was > 50 µg/mL; in experiment [12], 12.4 µg/mL; in experiment [13], > 50 µg/mL. Also, the neutralization IC50 in [7] was > 50 µg/mL.

In the case of PGT-143 (4980_N08) (antibody), the IC50 in [1] is > 50 µg/mL; in [2] it was 0.156 µg/mL; in experiment [3], 34 µg/mL; in experiment [4], 1.11 µg/mL; in experiment [5], > 50 µg/mL; in experiment [6], 13.6 µg/mL. The IC50 in experiment [8] was 0.135 µg/mL; in [9], 0.076 µg/mL; in [10] it was > 50 µg/mL; in experiment [11], > 50 µg/mL; in [12] it was 18.9 µg/mL; in experiment [13], > 50 µg/mL. In experiment [7], the neutralization IC50 is > 50 µg/mL.

As to PGT-144 (4970_K22) (antibody), the IC50 is > 50 µg/mL in experiment [1]; 44.6 µg/mL in experiment [2]; > 50 µg/mL in experiment [3]; > 50 µg/mL in [4]; > 40 µg/mL in experiment [5]; > 50 µg/mL in experiment [6]. Further, the IC50 was 3.55 µg/mL in experiment [8]; 7.78 µg/mL in [9]; > 50 µg/mL in experiment [10]; > 50 µg/mL in experiment [11]; > 50 µg/mL in experiment [12]; > 50 µg/mL in experiment [13]. The neutralization IC50 in experiment [7] is > 50 µg/mL.

As for VRC01 (antibody), the IC50 in experiment [1] was 0.031 µg/mL; in experiment [2], 0.084 µg/mL; in [3] it was 0.124 µg/mL; in experiment [4], 0.091 µg/mL; in [5], 0.197 µg/mL; in experiment [6], 0.835 µg/mL. The IC50 in experiment [8] is 1.72 µg/mL; in experiment [9], 0.95 µg/mL; in experiment [10], 0.043 µg/mL; in experiment [11] it was 0.344 µg/mL; in experiment [12], 0.228 µg/mL; in [13] it was > 50 µg/mL. The same substance gave an IC50 in [22] of 0.034 µg/mL. In addition, the neutralization IC50 was determined as 0.377 µg/mL in [14]; 1.03 µg/mL in [15]; 0.156 µg/mL in experiment [16]; 0.328 µg/mL in experiment [17]; 0.141 µg/mL in [18]; 0.275 µg/mL in [19]. In addition, the neutralization IC50 in experiment [7] was > 50 µg/mL; in experiment [20], 0.587 µg/mL; in [21], 0.424 µg/mL.
